{"source": "the supplement of paper PMC12042874", "note": "± gives the uncertainty stated by the source.", "data": [{"test": "amyloid nucleation score (Sup35N fusion, yeast selection) (log enrichment); library NNK2; higher = more nucleation; inactive = no reads after selection", "summary_of_the_method": "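Sup35N fusions to peptides of 20 random codons were expressed in psi-negative yeast, induced 24 hours with 100 μM copper sulfate, and grown 7 days at 30°C on medium lacking adenine and uracil. Input and output plasmid inserts were sequenced by Illumina. The nucleation score is the DiMSum log enrichment of output over input reads, centred on the mode score of non-aggregating sequences. Sequences with under 100 input reads were excluded.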", "values": [{"substance": "CKCPYFLCIRFWDVDSAMLS", "amyloid nucleation score": "2.21 ± 0.076"}, {"substance": "CKEDIISSEWYLSVGFA", "amyloid nucleation score": "inactive"}, {"substance": "CKLIFYTYPDYIYILIVKSS", "amyloid nucleation score": "inactive"}, {"substance": "CKRFFYFLGIPATPDRSAFS", "amyloid nucleation score": "-0.588 ± 0.76"}, {"substance": "CKRSWVSYMHW", "amyloid nucleation score": "-0.593 ± 1.1"}, {"substance": "CKSFNSFSETPKYAKVVPRA", "amyloid nucleation score": "0.633 ± 0.56"}, {"substance": "CLGFGRSSPTGYNTCVVRNY", "amyloid nucleation score": "-0.493 ± 1.1"}, {"substance": "CLGRLMVYSAYYVHLYGVTI", "amyloid nucleation score": "-1.29 ± 0.62"}, {"substance": "CLGTWPNLLGSISTMYAD", "amyloid nucleation score": "0.854 ± 0.53"}, {"substance": "CLIVFIADTAAYIKVSMSSV", "amyloid nucleation score": "inactive"}, {"substance": "CLLWVAQYVQAMEGVALSVG", "amyloid nucleation score": "1.5 ± 0.21"}, {"substance": "CLNCI", "amyloid nucleation score": "-0.497 ± 1"}, {"substance": "CLNWKYKNRELQVFNDSRVV", "amyloid nucleation score": "-2.77 ± 0.75"}, {"substance": "CLPGSH", "amyloid nucleation score": "0.535 ± 0.74"}, {"substance": "CLPNTST", "amyloid nucleation score": "0.075 ± 0.2"}, {"substance": "CLQFLSRYRVWPSHSFWGEY", "amyloid nucleation score": "3.68 ± 0.07"}, {"substance": "CLQSPLYFDWGSGIQISNWL", "amyloid nucleation score": "inactive"}, {"substance": "CLRGDNKISLDRSGGMTFGQ", "amyloid nucleation score": "1.79 ± 0.18"}, {"substance": "CLSCANL", "amyloid nucleation score": "0.486 ± 0.66"}, {"substance": "CLSDNC", "amyloid nucleation score": "-0.13 ± 0.74"}, {"substance": "CLSLSLVMSVGVLKSISQYS", "amyloid nucleation score": "-0.017 ± 1"}, {"substance": "CLSMFTVWSLAFASLSVTMR", "amyloid nucleation score": "-0.034 ± 0.45"}, {"substance": "CLSRLNVLWYSPFKHFILEC", "amyloid nucleation score": "-0.267 ± 0.45"}, {"substance": "CLTYYTCLTWKMPCGIRHQG", "amyloid nucleation score": "0.428 ± 0.22"}, {"substance": "CLWSTN", "amyloid nucleation score": "0.801 ± 0.58"}, {"substance": "CLYFFLSYRSCCINVFLGFC", "amyloid nucleation score": "-0.326 ± 1"}, {"substance": "CMAIDLPVHYS", "amyloid nucleation score": "0.005 ± 0.55"}, {"substance": "CMKKWFS", "amyloid nucleation score": "3.85 ± 0.075"}, {"substance": "CMREATFRLTSKFLSSFGL", "amyloid nucleation score": "4.04 ± 0.086"}, {"substance": "CMVNPVPWDCLVRKFMFVGA", "amyloid nucleation score": "-0.421 ± 0.35"}, {"substance": "CMWLLMTHPHKVTIMQ", "amyloid nucleation score": "7.262 ± 0.061"}, {"substance": "CNFLFYPFWCWLSICYFRSM", "amyloid nucleation score": "4.55 ± 0.085"}, {"substance": "CNPIGIMHN", "amyloid nucleation score": "inactive"}, {"substance": "CNPVAV", "amyloid nucleation score": "0.8 ± 0.66"}, {"substance": "CNVASFELVLRD", "amyloid nucleation score": "inactive"}, {"substance": "CNYVQIMLS", "amyloid nucleation score": "2.81 ± 0.056"}, {"substance": "CPHGCIQTARYQQ", "amyloid nucleation score": "1.19 ± 0.42"}, {"substance": "CPISCTYMEYTSWSSSRC", "amyloid nucleation score": "1.18 ± 0.44"}, {"substance": "CPLMNLYRNVFYVWKLNFLP", "amyloid nucleation score": "inactive"}, {"substance": "CPLRLTRGLKCRVYINWEHQ", "amyloid nucleation score": "0.354 ± 0.48"}, {"substance": "CPRVSVSSVLMGKLFL", "amyloid nucleation score": "-1.15 ± 0.54"}, {"substance": "CPSYSTMSTGFVERVLPTGR", "amyloid nucleation score": "1.53 ± 0.39"}, {"substance": "CPVLG", "amyloid nucleation score": "1.87 ± 0.32"}, {"substance": "CQIVGRHIGVRMCDDRVYRA", "amyloid nucleation score": "0.762 ± 0.6"}, {"substance": "CQLFMQSSRCIRRRFATSAC", "amyloid nucleation score": "-0.295 ± 0.76"}, {"substance": "CQRQRLNFY", "amyloid nucleation score": "-0.626 ± 1.1"}, {"substance": "CQSLIFASTYHRNSSFGKNV", "amyloid nucleation score": "2.92 ± 0.16"}, {"substance": "CQWSVGRLRSLRAESVVQFD", "amyloid nucleation score": "0.104 ± 0.35"}, {"substance": "CRAFVWQ", "amyloid nucleation score": "-0.889 ± 0.55"}, {"substance": "CRCLPKKGFHVLTVSRFRAS", "amyloid nucleation score": "inactive"}, {"substance": "CRGDRFSRSST", "amyloid nucleation score": "-0.217 ± 0.79"}, {"substance": "CRIFDTVSMLNSFYHGH", "amyloid nucleation score": "inactive"}, {"substance": "CRISVIFLYFSFFY", "amyloid nucleation score": "inactive"}, {"substance": "CRIVKRVRAADRRMWIMCLG", "amyloid nucleation score": "-0.256 ± 0.37"}, {"substance": "CRLRVDVGECDRGLYALRVW", "amyloid nucleation score": "1.21 ± 0.48"}, {"substance": "CRMYRSRCNCMCDRVVEMWG", "amyloid nucleation score": "-0.407 ± 0.4"}, {"substance": "CRNRVDECSIWRD", "amyloid nucleation score": "-0.046 ± 1"}, {"substance": "CRPGRLYVQIIFISMIRDNR", "amyloid nucleation score": "-0.513 ± 0.48"}, {"substance": "CRRSNFNYQGVLGYWHRFAG", "amyloid nucleation score": "-0.755 ± 1.1"}, {"substance": "CRSKASSSIRIPT", "amyloid nucleation score": "0.586 ± 0.81"}, {"substance": "CRTRL", "amyloid nucleation score": "0.505 ± 0.39"}, {"substance": "CRVRVTFG", "amyloid nucleation score": "-0.481 ± 1.1"}, {"substance": "CSAITGY", "amyloid nucleation score": "0.564 ± 0.23"}, {"substance": "CSCFWCRRRKNYKFLGGCGS", "amyloid nucleation score": "-1.25 ± 1.1"}, {"substance": "CSESFGCRTPPSLNMLVCN", "amyloid nucleation score": "-0.729 ± 1.1"}, {"substance": "CSGSLHERQYVRYDEVRRVG", "amyloid nucleation score": "-0.031 ± 0.55"}, {"substance": "CSIPCCVGHTLSLGRQFVFV", "amyloid nucleation score": "0.13 ± 0.43"}, {"substance": "CSKLFSRGPGLAFFQFFI", "amyloid nucleation score": "inactive"}, {"substance": "CSLAFVHRAIFSMSLLHSET", "amyloid nucleation score": "0.136 ± 0.4"}, {"substance": "CSLPCVTNWCRRRNMVSQPV", "amyloid nucleation score": "-1.11 ± 1.1"}, {"substance": "CSMMEPTMY", "amyloid nucleation score": "0.269 ± 0.41"}, {"substance": "CSMMNLKSFLADCSIPAFTG", "amyloid nucleation score": "-0.962 ± 0.64"}, {"substance": "CSPVLKSSFNALARKRMLAR", "amyloid nucleation score": "1.29 ± 0.35"}, {"substance": "CSQVALLNKLFLPG", "amyloid nucleation score": "-1.14 ± 0.38"}, {"substance": "CSVNNSSLCIVVVAWFCGLD", "amyloid nucleation score": "0.711 ± 0.45"}, {"substance": "CSVRSSAIYIRSCHHGWFYC", "amyloid nucleation score": "-1.19 ± 1.1"}, {"substance": "CSYPNTLNCELMGILCYVGN", "amyloid nucleation score": "6.47 ± 0.024"}, {"substance": "CSYSFDLTANICPISLNVVC", "amyloid nucleation score": "5.001 ± 0.043"}, {"substance": "CSYVAGETSLERSHCILGWS", "amyloid nucleation score": "0.161 ± 0.34"}, {"substance": "CTRSFVTQSDEDSPIGSDR", "amyloid nucleation score": "-1.39 ± 0.38"}, {"substance": "CTRVLW", "amyloid nucleation score": "-0.201 ± 0.32"}, {"substance": "CTTLLALHMWISCVIGWSR", "amyloid nucleation score": "0.172 ± 0.39"}, {"substance": "CTTYPAFLSSGNPNFIMRFL", "amyloid nucleation score": "-0.148 ± 0.51"}, {"substance": "CVCLD", "amyloid nucleation score": "0.1 ± 0.33"}, {"substance": "CVFNTFMNDKIIGRLWPTDW", "amyloid nucleation score": "2.91 ± 0.15"}, {"substance": "CVGIFDNDICVEFMMALRLD", "amyloid nucleation score": "-1.05 ± 0.64"}]}]}
